The record followed here is paper PMC5548120.

The target in this experiment is T1, rat TRPV2 (transient receptor potential vanilloid 2), full-length, with a 1D4-tag (rat), Q9WUD2.
T1 chain: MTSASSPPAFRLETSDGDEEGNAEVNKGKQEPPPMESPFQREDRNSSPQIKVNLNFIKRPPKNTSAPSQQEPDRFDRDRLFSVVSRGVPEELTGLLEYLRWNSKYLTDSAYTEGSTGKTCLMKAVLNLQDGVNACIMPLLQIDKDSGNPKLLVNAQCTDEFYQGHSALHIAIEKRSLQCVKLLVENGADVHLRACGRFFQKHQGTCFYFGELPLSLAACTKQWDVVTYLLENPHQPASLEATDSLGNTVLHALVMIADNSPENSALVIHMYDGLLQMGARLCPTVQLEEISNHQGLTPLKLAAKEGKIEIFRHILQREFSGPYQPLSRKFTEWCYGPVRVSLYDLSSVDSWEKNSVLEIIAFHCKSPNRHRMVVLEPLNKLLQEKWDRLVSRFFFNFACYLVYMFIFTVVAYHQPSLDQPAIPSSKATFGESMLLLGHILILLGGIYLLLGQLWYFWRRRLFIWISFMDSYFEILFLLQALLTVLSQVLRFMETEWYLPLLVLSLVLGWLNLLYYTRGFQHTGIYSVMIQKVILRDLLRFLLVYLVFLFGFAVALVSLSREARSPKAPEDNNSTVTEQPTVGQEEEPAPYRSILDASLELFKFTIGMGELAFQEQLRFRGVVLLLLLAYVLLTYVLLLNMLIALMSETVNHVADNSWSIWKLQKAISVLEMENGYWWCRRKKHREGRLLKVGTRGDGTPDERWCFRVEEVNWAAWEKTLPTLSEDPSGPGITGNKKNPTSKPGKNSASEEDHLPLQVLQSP
The experiment is described as follows: SEC + native gel or EMSA. Conditions: remark: other sources report otherwise. A general note: Mobility shift assays separate free from complexed probe on a gel.

B1: rat TRPV2 (transient receptor potential vanilloid 2), full-length, with a 1D4-tag, Q9WUD2 1-761 (natural protein)
chain: MTSASSPPAFRLETSDGDEEGNAEVNKGKQEPPPMESPFQREDRNSSPQIKVNLNFIKRPPKNTSAPSQQEPDRFDRDRLFSVVSRGVPEELTGLLEYLRWNSKYLTDSAYTEGSTGKTCLMKAVLNLQDGVNACIMPLLQIDKDSGNPKLLVNAQCTDEFYQGHSALHIAIEKRSLQCVKLLVENGADVHLRACGRFFQKHQGTCFYFGELPLSLAACTKQWDVVTYLLENPHQPASLEATDSLGNTVLHALVMIADNSPENSALVIHMYDGLLQMGARLCPTVQLEEISNHQGLTPLKLAAKEGKIEIFRHILQREFSGPYQPLSRKFTEWCYGPVRVSLYDLSSVDSWEKNSVLEIIAFHCKSPNRHRMVVLEPLNKLLQEKWDRLVSRFFFNFACYLVYMFIFTVVAYHQPSLDQPAIPSSKATFGESMLLLGHILILLGGIYLLLGQLWYFWRRRLFIWISFMDSYFEILFLLQALLTVLSQVLRFMETEWYLPLLVLSLVLGWLNLLYYTRGFQHTGIYSVMIQKVILRDLLRFLLVYLVFLFGFAVALVSLSREARSPKAPEDNNSTVTEQPTVGQEEEPAPYRSILDASLELFKFTIGMGELAFQEQLRFRGVVLLLLLAYVLLTYVLLLNMLIALMSETVNHVADNSWSIWKLQKAISVLEMENGYWWCRRKKHREGRLLKVGTRGDGTPDERWCFRVEEVNWAAWEKTLPTLSEDPSGPGITGNKKNPTSKPGKNSASEEDHLPLQVLQSP
As usually defined, the stoichiometry N is a count of units in the complex or per binding partner. Take B1: the stoichiometry N was determined as 4.
